We go through six compounds from PMC10495264 (Nature Cell Biology, 2023).

Experiment [1] relates to yeast cells. The experiment can be described thus: Drop spot growth assays on rapamycin and/or cerulenin plates. Format: cell-based, Saccharomyces cerevisiae. As to conditions: low / sublethal doses combined.
Procedure: Yeast cells (Saccharomyces cerevisiae) were cultured in liquid SC medium (1.7 g l^−1 yeast nitrogen base (cat. no. 1545, CONDA), 5 g l^−1 ammonium sulfate (cat. no. 4808211, MP Biomedicals), 20 g l^−1 glucose (cat. no. 1422, AppliChem), 2 g l^−1 amino acid dropout –His (D9520, US Biological) and 35 mg l^−1 histidine (A1341, AppliChem) at 30 °C to the exponential growth phase, unless otherwise stated in the figure legends. All yeast strains used in this study are listed in Supplementary Table 1.
In experiment [2] the target is TORC1 containing the N-terminally GFP-tagged Tor1 subunit (Saccharomyces cerevisiae) (UniProt P35169). The experiment can be described thus: MST; GFP–Tor1-containing TORC1 (7.5 nM) as fluorescent target, 16 twofold dilutions of Acc1 (highest 80 nM) or Fas1 (highest 20 nM); 50 mM HEPES NaOH pH 7.5, 150 mM NaCl; 30 °C; Monolith NT.115.
Experiment [3] has as its target T1, TORC1 (Saccharomyces cerevisiae, UniProt P35169).
T1 construct: made in house; host or cells: S. cerevisiae strain NIC005 ([RL170-2c] LEU2:GFP-TOR1)
The experiment can be described thus: MST binding affinity assays with fluorescent TORC1 (GFP–Tor1). As to conditions: for Kd: purified yeast proteins, GFP–Tor1-containing TORC1 7.5 nM, 30 °C, mean ± s.d., n = 3, read-out: Kd (binding to TORC1, MST); for Fraction bound transformed (MST, TORC1 target): Fig. 6d,e. Here is the method:
The MST experiments were performed using a Monolith NT.115 (Nanotemper Technologies). Purification of TORC1 containing the N-terminally GFP-tagged Tor1 subunit was carried out as described previously. For the protein–protein interaction experiments, GFP–Tor1-containing TORC1 (7.5 nM) was mixed with a series of twofold dilutions (a total of 16 samples) of Acc1 (highest concentration, 80 nM) or Fas1 (highest concentration, 20 nM) purified from yeast through TAP-tag immuno-enrichment with rabbit IgG-coated magnetic beads and subsequent TEV cleavage in elution buffer (50 mM HEPES NaOH pH 7.5 and 150 mM NaCl) for 1 h at 18 °C. The samples were loaded into Monolith NT.115 capillaries and MST measurements were performed using 80% laser power and medium MST power setting at 30 °C. For the small molecule–protein interaction experiments, GFP–Tor1-containing TORC1 (7.5 nM) was mixed with a series of twofold dilutions (a total of 16 samples) of Mal-CoA (M4263, Sigma-Aldrich; highest concentration, 5 mM) dissolved in 50 mM HEPES pH 7.5. The samples were loaded into Monolith NT.115 capillaries and MST measurements were performed using 80% laser power and medium MST power setting at 30 °C. The experiments were performed in triplicate and data were fitted using the Kd model of the MO.Affinity Analysis software (Nanotemper Technologies). The signal-to-noise ratio represents the response amplitude divided by the noise of the measurement. The Kd value was obtained by plotting the bound fraction against the log-transformed ligand concentration.

Experiment [4] addresses T1, TORC1. The experiment is described as above.
The subject of experiment [5] is intracellular TAG and palmitate (C16:0) levels. Put plainly: TAG and palmitate (C16:0) measurements by LC-HRMS. Format: cell-based, human. As to conditions: ED Fig. 5t; compared with BSA. Here is the method:
The intracellular levels of TAGs and palmitate (C16:0) were determined using liquid chromatography-high resolution mass spectrometry-based analysis. Briefly, cells were seeded in 10-cm dishes and treated as described in the ‘Mammalian cell culture treatments’ section. The cells were scraped in medium and collected by centrifugation (400g, 3 min). The pellets were then washed three times with 1 ml ice-cold PBS, snap frozen in liquid nitrogen and kept at −80 °C until further processing.
The samples were vortexed for 10 s immediately after the addition of the extraction buffer and then incubated for 30 min on an orbital shaker at 4 °C. The proteins were pelleted by centrifugation (10 min, 21,000g, 4 °C) and the supernatants were transferred to a clean 2-ml tube. […]
The lipid pellets were resuspended in 200 µl ultra-performance liquid chromatography (UPLC)-grade acetonitrile:isopropanol 70:30 (vol/vol). […] In both cases, the analysed mass range was in the range of m/z 150–1,500. […]
All samples were analysed in a randomized run order. […] For measurements of intracellular TAG abundance (Extended Data Fig. 5r), the sum of all values corresponding to the peak areas for the different individual TAGs was calculated for each sample.

Setting [6] is: titrated protein 4.88281e-9 M, Fig. 6d,e.
Where [7] appears, read: titrated protein 3.90625e-8 M, Fig. 6d,e.
[8] abbreviates: titrated protein 1.5625e-7 M, Fig. 6d,e.

T1 sequence (P35169 whole entry): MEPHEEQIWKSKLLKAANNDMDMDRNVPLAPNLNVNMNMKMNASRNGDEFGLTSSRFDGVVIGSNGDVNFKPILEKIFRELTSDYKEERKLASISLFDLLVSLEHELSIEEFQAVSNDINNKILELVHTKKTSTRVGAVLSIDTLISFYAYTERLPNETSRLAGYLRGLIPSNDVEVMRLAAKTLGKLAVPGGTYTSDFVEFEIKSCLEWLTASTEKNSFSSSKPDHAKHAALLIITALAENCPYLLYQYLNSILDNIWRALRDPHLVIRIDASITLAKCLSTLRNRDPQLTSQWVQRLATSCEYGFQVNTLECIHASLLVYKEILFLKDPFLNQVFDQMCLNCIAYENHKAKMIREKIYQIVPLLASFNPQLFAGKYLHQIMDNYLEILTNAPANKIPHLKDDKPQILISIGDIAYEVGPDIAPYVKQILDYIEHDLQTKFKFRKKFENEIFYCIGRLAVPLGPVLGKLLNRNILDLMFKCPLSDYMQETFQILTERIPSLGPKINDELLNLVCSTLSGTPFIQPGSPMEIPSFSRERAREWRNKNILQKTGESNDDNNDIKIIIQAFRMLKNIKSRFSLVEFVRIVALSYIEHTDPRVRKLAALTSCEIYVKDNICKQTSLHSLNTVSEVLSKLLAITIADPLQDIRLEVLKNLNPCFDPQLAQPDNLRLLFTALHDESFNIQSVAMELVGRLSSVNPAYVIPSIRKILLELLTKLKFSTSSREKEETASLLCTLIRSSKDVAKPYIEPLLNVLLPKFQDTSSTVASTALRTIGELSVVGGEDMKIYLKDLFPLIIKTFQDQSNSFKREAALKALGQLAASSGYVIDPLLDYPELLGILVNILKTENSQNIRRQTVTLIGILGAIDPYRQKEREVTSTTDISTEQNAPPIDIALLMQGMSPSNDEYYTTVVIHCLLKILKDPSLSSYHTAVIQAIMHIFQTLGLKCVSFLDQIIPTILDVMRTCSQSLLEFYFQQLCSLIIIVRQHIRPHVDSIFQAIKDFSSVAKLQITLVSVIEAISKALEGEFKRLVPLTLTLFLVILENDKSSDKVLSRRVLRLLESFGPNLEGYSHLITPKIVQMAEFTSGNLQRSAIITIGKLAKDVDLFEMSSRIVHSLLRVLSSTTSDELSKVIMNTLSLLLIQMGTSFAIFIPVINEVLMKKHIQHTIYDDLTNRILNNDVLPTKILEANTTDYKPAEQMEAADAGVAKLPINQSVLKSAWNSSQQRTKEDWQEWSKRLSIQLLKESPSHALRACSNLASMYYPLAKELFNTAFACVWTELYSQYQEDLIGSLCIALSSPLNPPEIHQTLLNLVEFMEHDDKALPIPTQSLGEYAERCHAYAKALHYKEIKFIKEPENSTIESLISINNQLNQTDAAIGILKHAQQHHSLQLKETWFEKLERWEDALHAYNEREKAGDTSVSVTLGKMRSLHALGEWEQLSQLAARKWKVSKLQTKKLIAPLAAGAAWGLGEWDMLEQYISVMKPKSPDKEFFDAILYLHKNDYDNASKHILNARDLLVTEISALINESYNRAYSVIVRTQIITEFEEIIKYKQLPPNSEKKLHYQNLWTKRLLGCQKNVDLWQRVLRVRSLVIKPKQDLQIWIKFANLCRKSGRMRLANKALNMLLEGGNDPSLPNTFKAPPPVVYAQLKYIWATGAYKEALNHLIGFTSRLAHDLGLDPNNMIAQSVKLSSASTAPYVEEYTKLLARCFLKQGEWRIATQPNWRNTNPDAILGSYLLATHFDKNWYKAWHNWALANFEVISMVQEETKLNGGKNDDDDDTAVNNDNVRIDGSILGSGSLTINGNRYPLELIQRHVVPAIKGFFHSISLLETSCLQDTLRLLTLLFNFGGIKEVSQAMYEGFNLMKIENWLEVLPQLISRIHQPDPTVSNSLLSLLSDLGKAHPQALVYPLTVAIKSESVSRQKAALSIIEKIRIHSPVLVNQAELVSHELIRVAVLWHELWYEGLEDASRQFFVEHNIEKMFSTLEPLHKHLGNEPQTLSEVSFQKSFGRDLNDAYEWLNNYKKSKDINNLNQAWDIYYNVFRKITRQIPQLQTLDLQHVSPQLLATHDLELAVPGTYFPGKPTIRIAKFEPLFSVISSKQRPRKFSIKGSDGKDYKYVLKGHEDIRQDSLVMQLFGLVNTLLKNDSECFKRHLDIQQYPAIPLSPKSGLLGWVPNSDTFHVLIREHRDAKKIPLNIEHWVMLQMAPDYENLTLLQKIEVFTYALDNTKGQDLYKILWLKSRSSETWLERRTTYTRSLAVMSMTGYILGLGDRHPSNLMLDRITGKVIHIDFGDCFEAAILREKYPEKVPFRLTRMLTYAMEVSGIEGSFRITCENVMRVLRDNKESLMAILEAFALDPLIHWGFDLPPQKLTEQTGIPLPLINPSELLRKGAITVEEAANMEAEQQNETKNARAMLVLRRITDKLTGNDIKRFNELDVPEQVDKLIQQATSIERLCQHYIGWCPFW
T1 sequence (Q08921 whole entry partner): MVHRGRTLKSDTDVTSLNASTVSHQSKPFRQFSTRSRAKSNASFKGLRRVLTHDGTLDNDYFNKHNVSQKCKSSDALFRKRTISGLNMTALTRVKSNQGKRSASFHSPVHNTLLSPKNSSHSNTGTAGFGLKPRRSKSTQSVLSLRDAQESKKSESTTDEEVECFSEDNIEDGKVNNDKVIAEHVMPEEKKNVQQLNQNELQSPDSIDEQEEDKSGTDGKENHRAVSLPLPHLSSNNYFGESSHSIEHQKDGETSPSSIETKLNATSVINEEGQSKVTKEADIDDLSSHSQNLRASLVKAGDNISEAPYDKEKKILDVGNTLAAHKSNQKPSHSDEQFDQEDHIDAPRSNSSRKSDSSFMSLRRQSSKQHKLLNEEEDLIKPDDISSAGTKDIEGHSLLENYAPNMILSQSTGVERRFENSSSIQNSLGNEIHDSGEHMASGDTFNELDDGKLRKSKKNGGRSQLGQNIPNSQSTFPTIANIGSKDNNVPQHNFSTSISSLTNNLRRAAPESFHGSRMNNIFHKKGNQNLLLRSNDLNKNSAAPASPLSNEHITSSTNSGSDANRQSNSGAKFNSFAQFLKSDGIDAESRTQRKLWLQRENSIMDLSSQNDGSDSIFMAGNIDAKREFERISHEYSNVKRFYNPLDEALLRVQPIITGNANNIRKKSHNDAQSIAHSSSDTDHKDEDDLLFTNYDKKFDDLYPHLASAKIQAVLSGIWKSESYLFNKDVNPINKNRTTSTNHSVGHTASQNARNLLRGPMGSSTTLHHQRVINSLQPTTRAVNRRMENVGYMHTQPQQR
T1 sequence (P38873 whole entry partner): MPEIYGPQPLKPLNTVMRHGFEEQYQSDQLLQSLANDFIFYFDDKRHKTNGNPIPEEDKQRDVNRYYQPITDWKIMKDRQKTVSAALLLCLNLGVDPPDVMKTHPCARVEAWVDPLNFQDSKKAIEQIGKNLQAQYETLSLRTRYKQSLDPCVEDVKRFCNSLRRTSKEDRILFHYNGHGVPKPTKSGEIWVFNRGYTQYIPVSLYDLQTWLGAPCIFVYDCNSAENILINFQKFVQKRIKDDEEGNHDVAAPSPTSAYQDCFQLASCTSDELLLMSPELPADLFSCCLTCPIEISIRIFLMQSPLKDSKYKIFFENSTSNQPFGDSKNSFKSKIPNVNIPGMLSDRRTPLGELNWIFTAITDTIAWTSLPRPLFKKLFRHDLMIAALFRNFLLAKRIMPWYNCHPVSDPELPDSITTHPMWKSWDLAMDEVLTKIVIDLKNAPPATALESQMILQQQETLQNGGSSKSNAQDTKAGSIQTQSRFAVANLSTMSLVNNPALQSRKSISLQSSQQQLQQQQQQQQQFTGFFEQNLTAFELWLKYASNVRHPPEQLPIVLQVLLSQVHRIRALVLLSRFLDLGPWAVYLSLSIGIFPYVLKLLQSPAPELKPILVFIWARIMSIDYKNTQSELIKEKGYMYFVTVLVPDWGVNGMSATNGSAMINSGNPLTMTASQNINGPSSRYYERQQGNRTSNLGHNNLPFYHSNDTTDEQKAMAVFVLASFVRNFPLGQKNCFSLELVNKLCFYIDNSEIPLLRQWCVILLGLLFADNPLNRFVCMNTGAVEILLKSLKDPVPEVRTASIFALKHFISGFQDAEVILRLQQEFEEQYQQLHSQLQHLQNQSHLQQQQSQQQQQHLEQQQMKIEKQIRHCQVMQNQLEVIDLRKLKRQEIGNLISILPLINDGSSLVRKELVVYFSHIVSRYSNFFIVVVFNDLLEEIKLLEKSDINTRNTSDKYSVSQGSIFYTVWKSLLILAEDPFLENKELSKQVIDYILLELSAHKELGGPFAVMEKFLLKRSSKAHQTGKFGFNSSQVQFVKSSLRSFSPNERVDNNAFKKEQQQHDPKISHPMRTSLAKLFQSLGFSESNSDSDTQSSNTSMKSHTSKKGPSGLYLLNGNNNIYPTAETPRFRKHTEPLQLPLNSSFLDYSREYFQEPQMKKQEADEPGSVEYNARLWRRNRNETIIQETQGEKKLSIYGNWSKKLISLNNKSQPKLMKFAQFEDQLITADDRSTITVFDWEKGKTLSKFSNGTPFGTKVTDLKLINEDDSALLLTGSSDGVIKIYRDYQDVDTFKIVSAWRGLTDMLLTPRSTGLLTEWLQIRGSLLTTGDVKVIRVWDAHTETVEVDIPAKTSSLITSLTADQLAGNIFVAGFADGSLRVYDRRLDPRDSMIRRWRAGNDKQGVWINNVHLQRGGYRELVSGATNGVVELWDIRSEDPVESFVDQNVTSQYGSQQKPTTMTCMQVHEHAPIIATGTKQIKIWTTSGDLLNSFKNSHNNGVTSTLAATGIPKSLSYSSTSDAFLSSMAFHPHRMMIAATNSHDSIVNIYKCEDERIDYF
T1 sequence (P41318 whole entry partner): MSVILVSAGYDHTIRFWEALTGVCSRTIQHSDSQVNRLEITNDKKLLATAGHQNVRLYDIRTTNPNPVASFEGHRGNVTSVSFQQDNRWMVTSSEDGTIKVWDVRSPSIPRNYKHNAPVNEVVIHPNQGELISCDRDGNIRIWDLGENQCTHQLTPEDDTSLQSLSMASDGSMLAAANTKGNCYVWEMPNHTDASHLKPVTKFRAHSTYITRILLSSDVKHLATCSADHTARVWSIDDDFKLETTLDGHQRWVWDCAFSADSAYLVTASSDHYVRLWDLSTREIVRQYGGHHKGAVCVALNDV

For `CO[C@H]1C[C@@H]2CC[C@@H](C)[C@@](O)(O2)C(=O)C(=O)N2CCCC[C@H]2C(=O)O[C@H]([C@H](C)C[C@@H]2CC[C@@H](O)[C@H](OC)C2)CC(=O)[C@H](C)/C=C(\C)[C@@H](O)[C@@H](OC)C(=O)[C@H](C)C[C@H](C)/C=C/C=C/C=C/1C` [rapamycin], the “combined effect of rapamycin and cerulenin on yeast growth” value in experiment [1] was “additive effect”.

In the case of “Acc1 purified from yeast (from UniProt Q00955 1-2233) (enzyme)”, in experiment [2], the Kd (in general, a measure of binding affinity in units of concentration) worked out at 49.1 nM.

As to “Acc1: yeast acetyl-CoA carboxylase purified from yeast through TAP-tag immuno-enrichment”, in experiment [3], the Kd came out at 49.1 ± 28.3 nM. For the same compound, the “Fraction bound transformed (MST, TORC1 target)” value (“Fraction bound transformed” below) in experiment [3] (titrated protein 2.44141e-9 M) is 0.1107; in experiment [3] (titrated protein 9.76563e-9 M), -0.03249; in experiment [3] (titrated protein 1.95313e-8 M), 0.3896; in experiment [3] (titrated protein 7.8125e-8 M) it was 0.8094; in experiment [3] (titrated protein 3.125e-7 M), 0.5572; in experiment [3] (titrated protein 6.25e-7 M) it was 0.7617. For the same compound, the “Fraction bound transformed” value in experiment [3] (titrated protein 1.25e-6 M) is reported as 0.8055; in experiment [3] (titrated protein 2.5e-6 M), 0.9274; in experiment [3] (titrated protein 5e-6 M) it was 1.054; in experiment [3] (titrated protein 1e-5 M), 1.011; in experiment [3] (titrated protein 2e-5 M) it was 0.9376; in experiment [3] (titrated protein 4e-5 M), 1.262. Also, the “Fraction bound transformed” value in experiment [3] (titrated protein 8e-5 M) was determined as 1.2067; in experiment [4] (setting [6]) it was 0.03811; in experiment [4] (setting [7]), 0.4481; in experiment [4] (setting [8]) it was 0.735.

On to BSA-C16:0, for which the “C16:0 (peak area), Mean” value in experiment [5] is given as 531779.

On to “Fas1 purified from yeast (from UniProt P07149 1-2051) (enzyme)”, for which the Kd in experiment [2] was found to be 23.7 nM.

Consider “Fas1: yeast FA synthase subunit purified from yeast through TAP-tag immuno-enrichment”, for which the Kd in experiment [3] turned out to be 23.7 ± 15.4 nM. The “Fraction bound transformed” value in experiment [3] (titrated protein 2.44141e-9 M) is listed as 0.1633; in experiment [3] (titrated protein 9.76563e-9 M), 0.4832; in experiment [3] (titrated protein 1.95313e-8 M) it was 0.1917; in experiment [3] (titrated protein 7.8125e-8 M) it was 0.6873; in experiment [3] (titrated protein 3.125e-7 M), 0.978; in experiment [3] (titrated protein 6.25e-7 M), 1.128. Also, the “Fraction bound transformed” value in experiment [3] (titrated protein 1.25e-6 M) was 1.25; in experiment [3] (titrated protein 2.5e-6 M), 1.151; in experiment [3] (titrated protein 5e-6 M), 0.8443; in experiment [3] (titrated protein 1e-5 M), 0.9239; in experiment [3] (titrated protein 2e-5 M), 0.8697; in experiment [4] (setting [6]) it was 0.2698. The “Fraction bound transformed” value is 0.7564 in experiment [4] (setting [7]); 0.5063 in experiment [4] (setting [8]); -0.03697 in experiment [4] (titrated protein 1.2207E-09 M, Fig. 6e); -0.1692 in experiment [4] (titrated protein 6.1035E-10 M, Fig. 6e).
